Changes are numbered by the printed parent chain. “Also recorded” adds a separate entry of the source.
T1: FSTL1 (Homo sapiens, UniProt Q12841)
T1 sequence (Q12841 21-308): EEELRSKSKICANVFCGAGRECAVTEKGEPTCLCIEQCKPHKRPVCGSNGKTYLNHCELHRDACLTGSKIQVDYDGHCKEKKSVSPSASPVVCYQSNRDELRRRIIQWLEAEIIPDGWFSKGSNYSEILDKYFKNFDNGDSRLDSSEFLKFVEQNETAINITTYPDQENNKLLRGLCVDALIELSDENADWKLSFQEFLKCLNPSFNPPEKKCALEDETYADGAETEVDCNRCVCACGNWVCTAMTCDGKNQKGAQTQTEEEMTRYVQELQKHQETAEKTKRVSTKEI

B1: #5-8: chicken-mouse chimeric anti-FSTL1 antibody clone; variable regions SEQ ID NO: 771 (light), 773 (heavy) (antibody, V domains shown)
VH: AVTLDESGGGLQTPGGGLSLVCKGSGFTFSSFNMFWVRQAPGKGLEWVAGIGKDGVPKYGTAVDGRATISKDNGQSTMRLQLNNLRAEDTGTYFCAKAAGGCSYDWCGIYTGDIDTWGHGTEVIVSS
VL: ASTQPSSVSANPGEAVKITCSGGSGSYYGWYQQKSPGSAPVTVIYNNNQRPSDIPSRFSGSKSGSTATLTITGVQAEDEAVYFCGGYDSSTGHGGIFGAGTTLTVL
modifications: mouse constant regions
B2: #8-1: chicken-mouse chimeric anti-FSTL1 antibody clone; variable regions SEQ ID NO: 791 (light), 793 (heavy) (antibody, V domains shown)
VH: B1 VH with G17A, T61A, T111A
VL: B1 VL with T91S
modifications: mouse constant regions
B3: #13: chicken-mouse chimeric anti-FSTL1 antibody clone; variable regions SEQ ID NO: 815 (light), 817 (heavy) (antibody, V domains shown)
VH: AVTLDESGGGLQTPGGGLSLVCKASGFTFSSVTMQWVRQAPGKGLEWVASICSGSSTYYGPAVKGRATISRDNGQNTVRLQLNNLRAEDTATYYCAKIVGRGRWSCTSAAYNIDAWGHGTEVIVSS
VL: ASTQPSSVSANPGETVKITCSGGGNNYGWYQQKSPGSAPVTVIYNNNNRPSNIPSRFSGSKSGSTNTLTITGVQAEDEAVYYCGSYDSSSDSGIFGAGTTLTVL
modifications: mouse constant regions
B4: #6-55: chicken-mouse chimeric anti-FSTL1 antibody clone; variable regions SEQ ID NO: 783 (light), 785 (heavy) (antibody, V domains shown)
VH: AVTLDESGGGLQTPGGALSLVCKGSGFTFTSVTMQWVRQAPGKGLEWVASVCSGSSTYYAPAVKGRATISRDNGQSTVRLQLSNLRPEDTGTYYCAKIAGRARWSCTSAAYNIDAWGHGTEVIVSS
VL: ASTQPSSVSAIPGETVKITCSGGGNNYGWYQQRSPGSAPVTVIYYNDNRPSNIPSRFSGSTSGSTSTLTITGVQADDEAIYYCGSWDSNTDSGIFGAGTTLTVL
modifications: mouse constant regions
B5: #33: chicken-mouse chimeric anti-FSTL1 antibody clone; variable regions SEQ ID NO: 823 (light), 825 (heavy) (antibody, V domains shown)
VH: AVTLDESGGGLQTPGGGLSLVCKASGFTFSSFNMNWVRQAPGKGLEYVAEISGTGSSTYYGSAVKGRATISRDNGQSTVRLQLNNLRAEDTATYFCARGDGAYSIDAWGHGTEVIVSS
VL: ASTQPSSVSANPGETVEITCSGDSSYYGWFQQKSPGSAPVTVIYDNTNRPSDIPSRFSGSKSGSTATLTITGVRAEDEAVYYCGGYDSSTYDGIFGAGTTLTVL
modifications: mouse constant regions

Legend:
FSTL1 = target: T1, FSTL1; assay: Inhibition of activation of tumor cells by FSTL1, RANKL- and CCR2-positive cells in human pancreatic cancer cell line Panc1 (Examples 5, 7, 9, 10, 11); assay type: cell-based; design: purchased R&D Systems, Inc. 1694-FN-050; conditions: Example 9; FSTL1 20 ng/mL, antibody 10 μg/mL, 3 days
[1] = system: mouse melanoma cells (B16-F10) forced to express Snail; assay: In vivo, intraperitoneal administration, Snail-positive B16-F10 bone metastasis model (Example 18); design: species or system C57BL/6N mice; conditions: intraperitoneal 10 mg/kg on days 5 and 10; day 14
Source text: 1. Experiment Group (n=5) • 1. No treatment (0.9% NaCi as a sham) • 2. Control IgG (anti-DNP) • 3. Anti-FSTL1 Clone #6-55 • 4. Anti-FSTL1 Clone #7-34 • 5. Anti-FSTL1 Clone #8-1 […]
(§1) • Effects on the growth of subcutaneous tumor (calculation of tumor volume by tumor size measurement): measured 7, 11, and 14 days after tumor implantation (FIG. 12B) • Effects on bone metastasis (GFP-positive tumor cells in bone marrow or the spleen) (FIGS. 12A and 12C) • Effects on MSC expansion (CD45-negative cells in bone marrow or the spleen) (FIGS. 12A and 12C) • Effects on weight loss (FIG. 12A) • Effects on the expansion of immunosuppressive Treg cells (CD4-positive and Foxp3-positive cells in the spleen) (FIG. 12C) • Other immunosuppressive properties (FIG. 12C)
(§2) In Example 17, the antibody was administered into tumor according to the purpose of “inhibiting metastasis from a primary focus to bone” as previously conducted by the present inventors. […] Specifically, antitumor effects and immunosuppression-mitigating effects were comparatively analyzed by the intraperitoneal administration (systemic administration) of the anti-FSTL1 antibody using bone metastasis models in which mouse melanoma cells (B16-F10) forced to express Snail were subcutaneously and intravenously transplanted in C57BL/6N mice. […]

[2] = system: GFP-positive and Snail-positive B16-F10 tumor cells; assay: Snail-positive B16-F10 bone metastasis model, intraperitoneal administration (Example 18); assay type: in vivo, mouse; conditions: intraperitoneal 10 mg/kg on days 5 and 10; FIG. 106A
Source text: 1. Experiment Group (n=5) • 1. No treatment (0.9% NaCl as a sham) • 2. Control IgG (anti-DNP) • 3. Anti-FSTL1 Clone #6-55 • 4. Anti-FSTL1 Clone #7-34 • 5. Anti-FSTL1 Clone #8-1 […]
as §1, with “106B)” for “12B)”, “106A” for “12A”, “106C)” for “12C)”, “(CD45− negative” for “(CD45-negative”, “106A)” for “12A)”
as §2

[3] = system: C57/BL/6 mouse-derived bone marrow cells; assay: MSC induction inhibition test using mouse bone marrow cells, FSTL1 stimulation (Example 27); assay type: cell-based; conditions: FSTL1 20 ng/mL; antibody 10 μg/mL; 8 days; FIG. 21A
Description: (§3) In this Example, the inhibitory activity of the anti-FSTL1 antibody was confirmed in an experimental system of mesenchymal stem cell induction while a FSTL1 inhibitory effect on MSC expansion induced not only by FSTL1 but by Snail+ tumor cells was also evaluated. For specific operation, each antibody (10 μg/mL) was added to systems in which C57/BL/6 mouse-derived bone marrow cells were stimulated with FSTL1 (20 ng/mL) or a culture supernatant of tumor cells. After culture for 8 days under stimulation, cell fraction CD45(−) cells (MSCs) containing MSCs at a high rate and CD45(−)CD146(+)ALCAM(+) cells (sMSCs) increasing in number in association with cancer metastasis were analyzed by flow cytometry in the same way as in Example 14, and the number of cells per culture system was counted. In this Example, mouse immunoglobulin manufactured by BioLegend, Inc. (#401408, Cone MG1-45) was used as a control antibody.

[4] = system: C57/BL/6 mouse-derived bone marrow cells; assay: MSC induction inhibition test using mouse bone marrow cells stimulated with FSTL1 (Example 27); assay type: cell-based; conditions: FSTL1 20 ng/mL, antibody 10 μg/mL, 8 days; flow cytometry; FIG. 115A
Description: as §3

Row | Molecule | inhibitory activity against the expansion of RANKL-positive cells and CCR2-positive cells (FSTL1) | anti-weight loss effect [1] | anti-weight loss effect [2] | MSC induction inhibitory activity (CD45(−) MSCs, CD45(−)CD146(+)ALCAM(+) sMSCs) [3] | MSC induction inhibitory effect [4]
1 | B1 | higher inhibitory activity; also recorded: exhibited inhibitory activity |  |  |  | 
2 | B2 |  | an anti-weight loss effect (right graph of FIG. 12A) was confirmed | confirmed |  | 
3 | B3 |  |  |  | strong inhibitory effect equivalent to or higher than that of #6-55 | strong inhibitory effect equivalent to or higher than that of #6-55
4 | B4 | higher inhibitory activity; also recorded: exhibited inhibitory activity | an anti-weight loss effect (right graph of FIG. 12A) was confirmed | confirmed |  | 
5 | B5 |  |  |  | strong inhibitory effect equivalent to or higher than that of #6-55; also recorded: high MSC induction inhibitory activity equivalent to or higher than that of #6-55 | strong inhibitory effect equivalent to or higher than that of #6-55

Source: US20180021429A1, “ANTICANCER AGENTS OR ANTIMETASTATIC AGENTS USING FSTL1 AND COMBINATION DRUG THEREOF” (PHARMA FOODS INTERNATIONAL CO., LTD., priority 2015, published 2018)
